Reference: patent publication US20220204569

Experiments:
[1] = test system: TAL-HT x3 GFP fusion (Xanthomonas (engineered)); details: FRAP T1/2 6.30 ± 1.86 s (n = 5), live HeLa; nuclear CV 1.2
[2] = test system: GFP fusion, 0 TAL-repeats (control) (Xanthomonas (engineered)); details: FRAP T1/2 1.87 ± 0.28 s (n = 3), live HeLa; nuclear CV 0.53
[3] = test system: ChrocodiLE (TAL-HT x15 GFP fusion) (Xanthomonas (engineered)); details: FRAP T1/2 68.53 ± 8.45 s (n = 4), live HeLa; nuclear CV 1.1
[4] = test system: TAL-HT x8 GFP fusion (Xanthomonas (engineered)); details: FRAP T1/2 30.97 ± 6.79 s (n = 5), live HeLa; nuclear CV 0.87
[5] = test system: TAL-HT x2 GFP fusion (Xanthomonas (engineered)); details: FRAP T1/2 2.91 ± 0.22 s (n = 5), live HeLa; nuclear CV 0.40, uniform localization as control
[6] = test system: TAL-HT x1 GFP fusion (Xanthomonas (engineered)); details: FRAP T1/2 2.09 ± 0.40 s (n = 5), live HeLa; nuclear CV 0.45, uniform localization as control
[7] = test system: TAL-HT x12 GFP fusion (Xanthomonas (engineered)); details: FRAP T1/2 67.84 ± 8.43 s (n = 4), live HeLa; nuclear CV 1.1

Work on HeLa nuclear genomic DNA (chromatin) yielded an FRAP recovery half-time [1] of 6.3 s, an FRAP recovery half-time [2] of 1.87 s and an FRAP recovery half-time [3] of 68.5 s. The FRAP recovery half-time [4] was 31 s, the FRAP recovery half-time [5] was 2.91 s and the FRAP recovery half-time [6] was 2.09 s. It also gave an FRAP recovery half-time [7] of 67.8 s.
